Experiments:
Format in all cases: cell-based, human
[1] = tested on: co-cultures of HUVEC and PBMC; assay: HUVEC plus PBMC co-culture assay (two donors), CXCL8; conditions: HUVEC + PBMC co-culture from two donors, 10 μg/ml, 24 h, FIG. 3A
Experimental: (§1) FIG. 3A-B HUVEC (A) and mixed donor BOEC (B) plus PBMC mono and co-culture bioassay data. PBMCs were added to HUVEC (A) or BOEC from different donors (B) after 24 h. For monocultures vehicle media was added. At the same time cultures were treated +/− vehicle, ANC28 (TGN1412-like superagonist) (10 μg/ml), Campath (10 μg/ml), Avastin (10 μg/ml) or Arzerra (10 μg/ml) for 24 h. Data are mean±SEM (A; n=3) (B; n=3). Statistical significance between treatments was determined by one-way ANOVA followed by Bonferroni's Multiple Comparison test (*p<0.05)
Supernatants were discarded from each tube.
In order to compare data from our same-donor assay with the current state-of-the-art assays^1,3,17, we ran parallel experiments using HUVECs as the detector endothelial cell model. PBMCs again released low levels of CXCL8 that was not increased by any of the biotherapetuics tested (FIG. 3A). HUVEC released relatively higher basal levels of CXCL8 that were not increased by anti-CD28 superagonist or Campath. […] The basis for these different results cannot be investigated further as HUVEC donors, unlike BOEC, cannot be easily traced and studied further. Similar results were found when PBMCs were added to BOECs from a different donor. Importantly, co-cultures of HUVEC and PBMC (from two donors) responded to TGN1412-like superagonist (ANC28) and Campath. […]

[2] = tested on: same donor BOEC: PBMC co-culture; assay: MSD 9-plex pro-inflammatory cytokine array on matched BOEC:PBMC co-cultures; conditions: 10 μg/ml, 24 h, FIG. 5
Experimental: FIG. 5A-C Cytokine release data from MSD analysis. Measurements were carried out using an MSD 10-spot 9-plex Pro-Inflammatory Assay (see methods). Data are mean±SEM (n=5 from matched 5 donors). Statistical testing was carried out between 5 donors by one-way ANOVA followed by Dunnett's multiple comparison test comparing responses with drug to respective control only (*p<0.05).
Plates were then incubated for 24 h.
To further analyse the cytokines released by matched BOEC and PBMC co-cultures as well as respective monocultures following stimulation with biologics an MSD (Meso Scale Discovery, USA) platform analysis was used. Human pro-inflammatory 9-Plex MULTISPOT 96-well-10 spot MSD plates were purchased from MSD (Gaithersburg, Md.) (Cat no. N05007A-1). Samples were diluted 1:10 in Lonza-EGM2 10% FBS/RPMI mix and added to the MSD plate. The immunoassay was carried out according to manufacturer's instructions. Plates were read using an MSC Sector Imager 2400 and analysed using MSD Discovery® Workbench software. Cytokines analysed were IL-2, CXCL8 (IL-8), IL-12q70, IL-1β, GM-CSF, IFNγ, IL-6, IL-10 and TNFα.

HUVEC = HUVEC mono-culture, CXCL8 by ELISA; conditions: 10 μg/ml, 24 h, FIG. 3A
Experimental: as §1
Plates were incubated at 37° C., 5% CO2.
In order to compare data from our same-donor assay with the current state-of-the-art assays^1,3,17, we ran parallel experiments using HUVECs as the detector endothelial cell model. PBMCs again released low levels of CXCL8 that was not increased by any of the biotherapetuics tested (FIG. 3A). HUVEC released relatively higher basal levels of CXCL8 that were not increased by anti-CD28 superagonist or Campath. […] The basis for these different results cannot be investigated further as HUVEC donors, unlike BOEC, cannot be easily traced and studied further. Similar results were found when PBMCs were added to BOECs from a different donor. Importantly, co-cultures of HUVEC and PBMC (from two donors) responded to TGN1412-like superagonist (ANC28) and Campath. This captures fully what is already know for this assay which, since the TGN1412 phase 1 trial, is as used as the gold standard assay to test biotherapeutics at the preclinical stage^1,17,18. […] This immune activation response in control or other conditions is likely due to the mixing of tissue from different donors and is a serious limitation for the HUVEC or other similar assays, but one that is totally avoided by our ‘same donor’ assay.

In the case of alemtuzumab [Campath], the CXCL8 release [1] was “responded”, the GM-CSF release [2] was “tendency to elevate” and the IL-6 release [2] was “tendency to elevate”. The IL-8 release [2] was “tendency to elevate” and the CXCL8 release (HUVEC) was “not increased”.
In the case of bevacizumab [Avastin], the CXCL8 release (HUVEC) was “tendency to respond”.
For ofatumumab [Arzerra], the CXCL8 release (HUVEC) was “tendency to respond”.
